Assay results published in US20150086555A1 (THERACLONE SCIENCES, published 2015).

Columns and labels:
[1] = biological target: hemagglutinin on live influenza A virus, A/California/4/09 H1N1 (Influenza A virus …); assay: cell-based or functional assay
[2] = biological target: hemagglutinin on whole influenza A virions, A/Wisconsin/67/05 H3N2 (Influenza A virus …); assay: cell-based or functional assay
[3] = biological target: hemagglutinin on whole influenza A virions, A/Solomon Islands/3/06 H1N1 (Influenza A virus A/Solomon …); assay: cell-based or functional assay
[4] = biological target: recombinant trimeric HA of H1N1 A/California/04/09 (Influenza A virus A/California/04/2009 …)
[5] = biological target: recombinant soluble homotrimeric HA of A/chicken/Vietnam/NCVD-016/08 (H5N1) (Influenza A virus …); assay: HA microarray, BCC supernatant
[6] = biological target: recombinant soluble homotrimeric HA of A/Hong Kong/2108/03 (H9N2) (Influenza A virus A/HK/2108/2003(H9N2)); assay: HA microarray, BCC supernatant
[7] = biological target: recombinant soluble homotrimeric HA of A/Japan/305/57 (H2N2) (Influenza A virus A/Japan/305/1957(H2N2)); assay: HA microarray, BCC supernatant
[8] = biological target: recombinant soluble homotrimeric HA of A/Anhui/1/05 (H5N1) (Influenza A virus A/Anhui/1/2005(H5N1)); assay: HA microarray, BCC supernatant
[9] = biological target: recombinant soluble homotrimeric HA of A/duck/Yangzhou/02/05 (H8N4) (Influenza A virus …); assay: HA microarray, BCC supernatant
[10] = biological target: recombinant soluble homotrimeric HA of A/Solomon Islands/3/06 (H1N1) (Influenza A virus A/Solomon …); assay: HA microarray, BCC supernatant
[11] = biological target: recombinant soluble homotrimeric HA of A/Indonesia/5/05 (H5N1) (Influenza A virus …); assay: HA microarray, BCC supernatant
[12] = biological target: recombinant soluble homotrimeric HA of A/Vietnam/1203/04 (H5N1) (Influenza A virus …); assay: HA microarray, BCC supernatant
[13] = biological target: recombinant soluble homotrimeric HA of A/Netherlands/219/03 (H7N7) (Influenza A virus …); assay: HA microarray, BCC supernatant
[14] = biological target: recombinant soluble homotrimeric HA of A/swine/Ontario/01911-2/99 (H4N6) (Influenza A virus …); assay: HA microarray, BCC supernatant
[15] = biological target: recombinant soluble homotrimeric HA of A/northern shoveler/California/HKWF115/07 (H6) (Influenza A virus A/northern …); assay: HA microarray, BCC supernatant
[16] = biological target: recombinant soluble homotrimeric HA of A/California/4/09 (H1N1) (Influenza A virus …); assay: HA microarray, BCC supernatant
[17] = biological target: recombinant soluble homotrimeric HA of A/Wisconsin/67/05 (H3N2) (Influenza A virus …); assay: HA microarray, BCC supernatant

B1: TCN-544 (5082_A19) (antibody, V domains shown)
VH: QVQLQESGPGLVKPSETLSLTCTVSRGSIGHYFWSWIRQPPGKGLEWIGYISYSGSTKYNPSLRSRVTISVDTSKNQFSLNLNSVTATDTALYYCAREDYDILTGAGPGMEVWGQGTTVTVSS
VL: QSMLTQPPSASGTPGQRVTISCSGSSSNIGSNTVNWFKHLPGTAPKLLIYRNDLRPSGVPDRFSGSKSGTSASLAISGLQSEDEADYYCATWDDSLNGFYVFGTGTKVTVL
% Neutralization [1]: 0%

B2: TCN-550 (5096_F06) (antibody, V domains shown)
VH: QVQLQESGPGLVKPSETLSLTCTVSGASINSHYWSWIRQPPGKGLEWIGYVYYSGSTTYNPSLKSRVTLSVDTSKNQFSLNLSSVTAADTAFYYCARHPYDVLTGSGDWFDPWGQGTLVTVSS
VL: SYVLTQAPSVSVAPGQTARITCGGNAIGSKKVHWYQHKAGQAPVLVVYDDTDRPSGIPERFSGSNSWSTATLTINRVEAGDEADYYCQVWDFTIDHVVFGGGTKLTVL
% Neutralization [1]: 0%

B3: TCN-549 (5092_P04) (antibody, V domains shown)
VH: QVQLVQSGAEVKKPGASVKVSCKASGYTFTGYYMHWVRQAPGQGLEWMGWINPNSGDTNYAQKFQGRVTMTRDTSITTAYMELSSLRSDDTAVYYCARDSPYSSSWSFFDYWGQGPLVTVSS
VL: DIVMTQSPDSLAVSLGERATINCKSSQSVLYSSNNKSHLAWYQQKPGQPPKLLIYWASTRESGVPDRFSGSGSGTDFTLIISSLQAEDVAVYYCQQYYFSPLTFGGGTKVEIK
% Neutralization [2]: 100% | % Neutralization [3]: 0% | % Neutralization [1]: 0%

B4: Fab fragment of TCN-533 (5256_A17a) (Fab, V domains shown)
VH: QVQLVQSGADVKKPGSSVTVSCKASGGSFSNYGINWVRQAPGQGLEWMGGIIPLINAPNYAPKFQGRVTITADMFSNIVSLQLTSLRTDDTAVYYCARRKMTTAIDYWGQGTLVTVSS
VL: QPVLTQPPSASASLGASVTLTCTLSSAYSNYKVDWYQQRPGKGPRFVMRVGTGGIVGSKGDGIPDRFSVLGSGLNRYLTIKNIQEEDESDYHCGADHGSGSNFVSPYVFGGGTKLTVL
Kd [4]: 0.129 nM | koff [4]: 8.2e-05 s⁻¹ | kon [4]: 635000 M⁻¹ s⁻¹

B5: TCN-552 (5249_I23) (antibody, V domains shown)
VH: QVQVVQSGAEVKKPGSSVRVSCQASGGTFMNYAIIWVRRAPGQGLEWMGGIIPVFPTPNYAQMFQGRVTISTDESRSTSFLELTNLRYEDTAVYYCARRIYHGGNSGFDFWGQGTLVTVSS
VL: EIVLTQSPATLSLSPGERATLSCRASQSVGNYLAWYQQKPGQAPRLLIYDSSNRAPGIPARFSGSGSGTDFTLTISSLAPEDFAVYYCQQRSKWPPMYSFGHGTKLEIK
% Neutralization [1]: 81%

B6: TCN-547 (5092_F11) (antibody, V domains shown)
VH: QVQLQESGPGLVKPSQTLSLTCTVSGDSISSVDHYWSWIRQHPVKGLEWIGFMYYSASTYYNPSLKSRVTISTDTSKNQFSLRLSSVTAADTAVYYCARGTCAGDCSLHYYYYGLDVWGQGRTVTVSS
VL: DIQMTQSPSSLSASVGDRVTITCRASQSISSYLNWYQHKPGKAPKVLMYAVSILQSGVPSRFSGSGSGADFTLTISSLQPEDFATYYCQQSYSSPLTFGGGTKVEIK
% Neutralization [2]: 88% | % Neutralization [3]: 0% | % Neutralization [1]: 0%

B7: TCN-554 (5277_M05) (antibody, V domains shown)
VH: QVQLVQSGADLKKPGASVKVSCKASGYTFTDYYIHWVRQAPGQGLEWMGWINPESGDTKYAQKFQGRVTMTRDTSITTAYMELGRLRSDDTAVYYCARDVSTTWSWFAPWGQGTLVTVSS
VL: DIVMTQSPDSLAVSLGERATINCRSSQSIFHNSNNENYLAWYQQKPGQPPKLLIYWASTRESGVPDRFSGSGSGTDFTLTISSLQAEDVAVYFCQQYYNAPLTFGGGTKVEIK
% Neutralization [1]: 0%

B8: TCN-548 (5092_P01) (antibody, V domains shown)
VH: QVQLQESGPGLVKPSETLSLTCTVSSGPMSDYYWSWIRQPPGKGLEWIGHVSVSHGGRTKSNPSVMSRVTISVETSKNQFSLKLTSVTAADTAVYYCARLNYYDRSGYHSPDGPSNNWFDPWGQGTLVTVSS
VL: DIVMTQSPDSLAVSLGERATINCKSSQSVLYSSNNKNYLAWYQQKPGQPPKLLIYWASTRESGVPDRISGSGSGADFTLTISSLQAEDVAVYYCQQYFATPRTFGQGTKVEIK
% Neutralization [2]: 96% | % Neutralization [3]: 0% | % Neutralization [1]: 0%

B9: TCN-545 (5082_I15) (antibody, V domains shown)
VH: QVQLQQWGAGLLKPSETLSLSCAVFGGSFSDYYWTWIRQPPGKGLEWIGEIKHSGRTNYNPSLESRVTISVDTSKNQFSLKLSSVTAADTAIYYCARGTDPDTEGYCRSGSCSAFDFWGQGTLVTVSS
VL: EIVLTQSPGTLSLSPGERATLSCRASHFVNYRSLAWYQQTPGQVPRLLIYGASTRATGIPDRFSGSGSGTDFTLTISRLEPEDFAVYFCQQYGGSPRYTFGQGTRLEIK
% Neutralization [1]: 0%

B10: TCN-553 (5261_C18) (antibody, V domains shown)
VH: QVQVVQSGTEVKKPGSSVKVSCQTSGGRFMSYAITWVRQAPGQGLEWMGGIVPVFGTANYAQKFQGRVTITTDDSTRTAYMELSSLRSEDTAVYYCGFRYGSGYGFDSWGQGTLVTVSS
VL: EIVLTQSPGTLSLSPGERATLSCRASQSVSSSYLAWYQKKPGQAPRLLIYGASTRATGIPDRFTGSGSGTDFTLSISRLEPEDFAVYYCQHFGTSVFTFGGGTKVEIK
% Neutralization [1]: 83%

B11: TCN-556 (5089_K12) (antibody, V domains shown)
VH: QVQLVQSGAEVKKPGASVKVSCKASGYTFIGYDMHWVRQAPGQGLEWMGWINAKRGGTNYAQKFQGRVTMTRDTSISTAYMELNSLRSDDTAVYYCARGVGSRTTIFGVLNPEFDYWGQGTLVTVSS
VL: QSALTQPPSASGSPGQSVTISCTGSSSDVGGYDYVSWYQQHPGKAPKLLIYEVTKRPSGVPDRFSGSKSGNTASLTVSGLQAEDEADYYCSSYAGNYNHVFGPGTKVTVL
Trimeric HA Binding: RLU [5]: 8800 RLU | Trimeric HA Binding: RLU [6]: 7410 RLU | Trimeric HA Binding: RLU [7]: 5610 RLU | Trimeric HA Binding: RLU [8]: 3700 RLU | Trimeric HA Binding: RLU [9]: 16900 RLU | Trimeric HA Binding: RLU [10]: 2850 RLU | Trimeric HA Binding: RLU [11]: 8450 RLU | Trimeric HA Binding: RLU [12]: 13800 RLU | Trimeric HA Binding: RLU [13]: 10600 RLU | Trimeric HA Binding: RLU [14]: 5600 RLU | Trimeric HA Binding: RLU [15]: 11900 RLU | Trimeric HA Binding: RLU [16]: 14600 RLU | Trimeric HA Binding: RLU [17]: 9320 RLU

B12: TCN-555 (5246_L16) (antibody, V domains shown)
VH: QVQLVQSGAEVKRPGSSVKVSCTASGGIFRKNAISWVRQAPGQGLEWMGGIIAVFNTANYAQKFQNRVKITADESGNTAYMELSSLTSDDTAVYYCASHPKYFYGSGSYPDFWGQGTLVTVSS
VL: QSALTQPRSVSGSPGQSITISCTGGSSDIGASNSVSWYQQHPGKAPKLVIFDVTERPSGVPHRFSGSKSGNTASLTVSGLQPDDEADYFCCAYGGKYLVVFGGGTKVTVL
% Neutralization [1]: 89%

B13: TCN-551 (5243_D01) (antibody, V domains shown)
VH: EVQLVQSGSEVKKPGESLKISCKGSGYSFSNYWIGWVRHMPGKGLEWMGIIYPGDSDTRYSPSFQGQVTMSADKSSSTVYLQWSSLKASDTAIYYCARRGGHSFGYGSGGDTHSEFDSWGQGTLVTVSS
VL: QSVLTQSPSVSAAPGQKVTISCSGSDSNIGDYFVCWYQHLPGKPPQLLIYENNKRPSGIPDRFSGSKSGTSATLGITGIQTGDEADYYCATWDGSLSAWVFGGGTKLTVL
% Neutralization [1]: 74%

B14: TCN-558 (5248_H10b) (antibody, V domains shown)
VH: QVQLVQSGSEVKKPGTSVKVSCTASGSVFTNYGISWVRQAPGQGLEWMGGIIPLFGAAKYAQKFQGRVTITADESTKTVYMELSRLTSKDTAIYFCAKAPRVYEYYFDQWGQGTPVTVSS
VL: EIVMTQFPATLSVSPGERVTLSCRASQSVSNNLAWYQQKPGQPPRLLIYDASTRATGVPAKFSGTGSGTEFTLSISSLQSEDFAVYYCQQYHNWPPSYSFGLGTKLEIK
% Neutralization [1]: 96%

B15: TCN-557 (5081_A04) (antibody, V domains shown)
VH: QVQLVQSGAEVKKPGASVKVSCKASGHTFTGYYIHWVRQAPGQGLEWMGWINPDSGATSSAQNFQGRVTMTGDTSSSTAYMELSRLSFDDTAVYYCARVLFTSPFDFWGEGTLVTVSS
VL: QAVVTQEPSLAVSPGGTVTLTCGSSTGAVTRGHYPYWFQQKPGQAPRALIYDSAGNRHSWTPARFSGSLLGGKAALTLSGAQPEDEAEYYCLLSYSGVWVFGGGTKLTVL
% Neutralization [2]: 0% | % Neutralization [3]: 7% | % Neutralization [1]: 10%

B16: TCN-560 (5084_P10) (antibody, V domains shown)
VH: EVQLVESGGGLVQPGGSLRLSCAASGFIFRNYWMSWVRQAPGKGLEWVANIKQDGREKYYVDSLRGRVNISRDNAENSLYLHMNSLRVEDTAVYFCARARMVVVTGDGFDVWGHGTMVTVSS
VL: DIQMTQSPSSLSASVGDRVTITCRASQNIKRYFNWYQQKPGKAPKLLIYAASNLENGVPSRFSGSGSGTDFTLTISSLQPEDFATYYCQQSFSKSWTFGQGTNVDIK
Trimeric HA Binding: RLU [5]: 46000 RLU | Trimeric HA Binding: RLU [6]: 49400 RLU | Trimeric HA Binding: RLU [7]: 46700 RLU | Trimeric HA Binding: RLU [8]: 49100 RLU | Trimeric HA Binding: RLU [9]: 44700 RLU | Trimeric HA Binding: RLU [10]: 38800 RLU | Trimeric HA Binding: RLU [11]: 35900 RLU | Trimeric HA Binding: RLU [12]: 44000 RLU | Trimeric HA Binding: RLU [13]: 48500 RLU | Trimeric HA Binding: RLU [14]: 41600 RLU | Trimeric HA Binding: RLU [15]: 42300 RLU | Trimeric HA Binding: RLU [16]: 49200 RLU | Trimeric HA Binding: RLU [17]: 49100 RLU
